Test results: US20090175866A1, “TREATMENT OF B-CELL MALIGNANCIES” (priority 2004, published 2009)

What was measured:
[1] = target: T1, FGFR2 (Homo sapiens, UniProt P21802); test: FGF-stimulated proliferation of FDCP-FGFR2 cells (XTT); type: cell-based; settings: up to 10 fold higher concentrations than the FDCP-FGFR3 IC50
T1 construct: was transfected with full length FGFR1 (FDCP-FGFR1), FGFR2 (FDCP-FGFR2), FGFR3 (FDCP-FGFR3); expressed in transfected cells; host or cells: FDCP-1 mouse myeloid progenitor cell line
T1 sequence (P21802 22-821, species assumed): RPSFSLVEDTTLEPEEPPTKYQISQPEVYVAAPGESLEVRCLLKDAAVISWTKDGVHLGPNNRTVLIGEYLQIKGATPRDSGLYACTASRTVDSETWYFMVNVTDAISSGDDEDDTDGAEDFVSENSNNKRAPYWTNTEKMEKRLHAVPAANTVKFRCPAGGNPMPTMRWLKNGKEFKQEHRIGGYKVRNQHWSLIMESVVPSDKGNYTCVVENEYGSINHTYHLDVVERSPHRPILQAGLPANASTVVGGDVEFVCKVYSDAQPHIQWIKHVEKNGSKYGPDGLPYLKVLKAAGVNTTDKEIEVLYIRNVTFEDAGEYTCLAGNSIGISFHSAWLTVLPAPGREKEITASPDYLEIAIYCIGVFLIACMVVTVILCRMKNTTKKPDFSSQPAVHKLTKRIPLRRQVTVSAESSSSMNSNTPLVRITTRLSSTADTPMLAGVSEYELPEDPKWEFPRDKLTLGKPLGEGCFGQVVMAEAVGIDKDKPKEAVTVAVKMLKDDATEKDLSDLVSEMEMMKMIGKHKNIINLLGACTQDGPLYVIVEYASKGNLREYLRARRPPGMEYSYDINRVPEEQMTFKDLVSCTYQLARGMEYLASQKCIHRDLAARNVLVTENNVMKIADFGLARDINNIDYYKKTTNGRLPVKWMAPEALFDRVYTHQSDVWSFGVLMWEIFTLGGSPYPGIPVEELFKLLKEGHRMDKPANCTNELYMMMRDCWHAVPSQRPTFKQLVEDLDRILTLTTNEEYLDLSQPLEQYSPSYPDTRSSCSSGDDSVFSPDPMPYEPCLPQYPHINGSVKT
From the text: FIG. 1D is a graph showing proliferation of FGFR expressing FDCP cells in the presence of increasing concentrations of PRO-001 as determined by XTT analysis. Data are the average of duplicate cultures. The X axis represents concentration of PRO-001 Fab. The Y axis represents % inhibition.
Non-transformed rat chondrocyte cell line expressing PGFR3 in an inducible manner (RCJ-FGFR3) has been described previously (Rauchenberger R. et al. J. Biol. Chem. 2003; 278:38194-205). […]
Cell viability was assessed by 3-(4,5-dimethylthiazol)-2,5-diphenyl tetrazolium (MTT) or (2,3-bis(2-methoxy-4-nitro-5-sulphophenyl)-5-[(phenylamino) carbonyl]-2H-tetrazolium hydroxide (XTT) dye absorbance where indicated. Cells were seeded in 96-well plates at a density of 20,000 (FDCP-1 cells), 5,000 (B9 cells) or 25,000 cells (MM cell lines) per well in culture medium. Cells were incubated in the absence or presence of one of the following cytokines: 10 ng/ml FGF9 and 5 μg/ml heparin, 1% murine IL-6, 50 ng/ml IGF-1 or 50 ng/ml human IL-6 where indicated and increasing concentrations of PRO-001, control antibody (purified human Fab) or 100 nM PD173074. […]

[2] = target: FGFR3 (Homo sapiens, UniProt P22607); test: Flow cytometry staining of primary myeloma cells expressing FGFR3; type: binding; parameters: endogenous in cells; host or cells: primary myeloma cells from bone marrow of t(4;14)-positive MM patients; settings: versus isotype control
Sequence of FGFR3 (P22607 23-806): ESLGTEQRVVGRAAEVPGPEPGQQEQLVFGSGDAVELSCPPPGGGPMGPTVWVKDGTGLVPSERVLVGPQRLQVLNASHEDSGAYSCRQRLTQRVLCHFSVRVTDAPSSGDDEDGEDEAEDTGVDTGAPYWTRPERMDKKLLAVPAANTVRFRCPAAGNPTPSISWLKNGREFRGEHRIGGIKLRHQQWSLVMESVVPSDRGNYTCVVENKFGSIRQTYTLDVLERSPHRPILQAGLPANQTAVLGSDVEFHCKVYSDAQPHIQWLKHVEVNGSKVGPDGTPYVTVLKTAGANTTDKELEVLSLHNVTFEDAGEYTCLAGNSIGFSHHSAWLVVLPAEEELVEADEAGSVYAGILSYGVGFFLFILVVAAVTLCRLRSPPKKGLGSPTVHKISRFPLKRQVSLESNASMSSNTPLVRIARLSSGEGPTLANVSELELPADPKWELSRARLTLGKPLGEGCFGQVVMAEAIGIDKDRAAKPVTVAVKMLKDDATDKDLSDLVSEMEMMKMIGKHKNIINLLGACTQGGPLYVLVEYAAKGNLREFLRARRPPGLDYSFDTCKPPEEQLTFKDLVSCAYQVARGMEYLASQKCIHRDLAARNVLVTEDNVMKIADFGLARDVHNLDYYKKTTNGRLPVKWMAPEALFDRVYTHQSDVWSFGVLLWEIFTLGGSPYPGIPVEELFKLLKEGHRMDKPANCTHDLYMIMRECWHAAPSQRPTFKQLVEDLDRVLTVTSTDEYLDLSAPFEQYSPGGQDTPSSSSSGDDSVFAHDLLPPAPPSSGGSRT
Procedure: FIGS. 6 A-B are flow cytometry charts of human primary myeloma cells treated with anti-FGFR antibody PRO-001. A: Freshly isolated BMSCs were stained with PRO-001 (black line) or control antibody (grey line) and then stained with PE-conjugated anti-human secondary antibody. B: Primary myeloma cells were incubated in the absence (filled) or presence of FGF (light line) or pre-incubated with 5 μg/ml PRO-001 (dark line) for 2 h and then stimulated with FGF. ERK1/2 phosphorylation was assessed by flow cytometry analysis.
Cells (5×10^5) were washed in cold phosphate-buffered saline (PBS) and then incubated for 30 minutes with one of the following: PRO-001 Fab or a human Fab control antibody, rabbit anti-FGFR3 (100) or rabbit preimmune serum in PBS. The cells were then stained with PE-conjugated goat antihuman F(ab′)2 secondary antibody or goat anti-rabbit IgG-PE for 30 minutes on ice. Flow cytometry was performed on a FACSCaliber flow cytometer (BD Biosciences, San Jose, Calif.) and analyzed using Cellquest software (Becton Dickinson). To assess the ability of FGF ligand to compete for binding, cells were incubated in the presence or absence of 30 ng/ml FGF and 5 μg/ml heparin for 30 minutes and then stained with PRO-001 Fab as describe above.
The next experiments were designed to examine the effect of PRO-001 on primary human MM cells. […]

B1: PRO-001: human anti-FGFR3 Fab from HuCAL library; VH-CDR3 SEQ ID NO:1, VL-CDR3 SEQ ID NO:10; VH SEQ ID NO:19, VL SEQ ID NO:28 (antibody, V domains shown)
VH: QVQLQQSGPGLVKPSQTLSLTCAISGDSVSSNSAAWNWIRQSPGRGLEWLGRTYYRSKWYNDYAVSVKSRITINPDTSKNQFSLQLNSVTPEDTAVYYCARSYYPDFDYWGQGTLVTVSS
VL: DIELTQPPSVSVAPGQTARISCSGDALGDKYASWYQQKPGQAPVLVIYDDSDRPSGIPERFSGSNSGNTATLTISGTQAEDEADYYCQSYDGPDLWVFGGGTKLTVLGQ
[1]
  Proliferation of FDCP-1 cells expressing FGFR2: unaffected
[2]
  Staining of primary cells expressing FGFR3: identified
